B1: Anti-sigma F factor (Bacillus subtilis), P10728 (parent)
chain: MKNEMHLEFSALSQNESFARVTVASFIAQLDPTMDELTEIKTVVSEAVTNAIIHGYEENCEGKVYISVTLEDHVVYMTIRDEGLGITDLEEARQPLFTTKPELERSGMGFTIMENFMDDVSIDSSPEMGTTIRLTKHLSKSKALCN
partner: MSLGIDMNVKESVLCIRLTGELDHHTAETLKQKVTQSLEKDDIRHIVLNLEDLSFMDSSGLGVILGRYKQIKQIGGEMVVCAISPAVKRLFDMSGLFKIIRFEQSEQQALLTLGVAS
B2: Serine/threonine-protein kinase RsbT (Bacillus subtilis), P42411 (parent)
chain: MNDQSCVRIMTEWDIVAARQLGRNVAKELGFGTVDQARITTAISELARNIYLYAGKGQIGIEQVADRGKKGLKIIAEDQGPGIPDIRKVMEDGFSTSGGLGAGLPGVKRLMDEFSLNSVAGEGTEIQAIKWLR
partner: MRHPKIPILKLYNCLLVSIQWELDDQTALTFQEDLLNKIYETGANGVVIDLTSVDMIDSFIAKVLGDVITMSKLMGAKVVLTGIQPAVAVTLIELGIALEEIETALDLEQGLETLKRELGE
B3: HPr kinase/phosphorylase (Bacillus subtilis), O34483 (parent)
chain: MAKVRTKDVMEQFNLELISGEEGINRPITMSDLSRPGIEIAGYFTYYPRERVQLLGKTELSFFEQLPEEEKKQRMDSLCTDVTPAIILSRDMPIPQELIDASEKNGVPVLRSPLKTTRLSSRLTNFLESRLAPTTAIHGVLVDIYGVGVLITGKSGVGKSETALELVKRGHRLVADDCVEIRQEDQDTLVGNAPELIEHLLEIRGLGIINVMTLFGAGAVRSNKRITIVMNLELWEQGKQYDRLGLEEETMKIIDTEITKLTIPVRPGRNLAVIIEVAAMNFRLKRMGLNAAEQFTNKLADVIEDGEQEE
partner: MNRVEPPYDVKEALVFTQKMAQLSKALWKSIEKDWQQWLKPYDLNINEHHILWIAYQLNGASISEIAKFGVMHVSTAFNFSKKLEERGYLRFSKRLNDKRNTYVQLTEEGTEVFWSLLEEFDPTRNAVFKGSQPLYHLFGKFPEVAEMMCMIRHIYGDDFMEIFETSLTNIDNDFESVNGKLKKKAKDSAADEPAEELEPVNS
B4: Tyrosine-protein kinase YwqD (Bacillus subtilis), P96716 (parent)
chain: MALRKNRGSRMQRNVIAMTEPKSLNSEQYRTIRTNIEFASVDRQMKSVMITSACPGEGKSTTAANLAVVFAQQGKKVLLIDADLRKPTVHTAFFLENTVGLTSVLLKKSSMEQAVQASNEKHLDVLTSGPIPPNPAELLSSKWMKELAYEACAAYDMVIFDTPPILAVADAQILGNVADGSVLVISSGKTEKEQAAKAKEALATCKSKLLGAIMNGKKLSKHSEYGYYGTKDNFMQK
partner: B2 chain

Variants of: B1
Conditions: with sp2aa_bacsu spoIIAA

| effect of a mutation on the interaction | Variant |
| --- | --- |
| disrupting interaction strength | MKNEMHLEFSALSQNESFARVTVASFIAQLDPTMDELTEIKTVVSEAVTAAIIHGYEENCEGKVYISVTLEDHVVYMTIRDEGLGITDLEEARQPLFTTKPELERSGMGFTIMENFMDDVSIDSSPEMGTTIRLTKHLSKSKALCN |

Variants of: B2
Conditions: with rsbs_bacsu rsbS

| effect of a mutation on the interaction | Variant |
| --- | --- |
| disrupting interaction strength | MNDQSCVRIMTEWDIVAARQLGRNVAKELGFGTVDQARITTAISELARAIYLYAGKGQIGIEQVADRGKKGLKIIAEDQGPGIPDIRKVMEDGFSTSGGLGAGLPGVKRLMDEFSLNSVAGEGTEIQAIKWLR |

Variants of: B3
Conditions: with hpr_bacsu hpr

| effect of a mutation on the interaction | Variant |
| --- | --- |
| disrupting interaction strength | MAKVRTKDVMEQFNLELISGEEGINRPITMSDLSRPGIEIAGYFTYYPRERVMLLGKTELSFFEQLPEEEKKQRMDSLCTDVTPAIILSRDMPIPQELIDASEKNGVPVLRSPLKTTRLSSRLTNFLESRLAPTTAIHGVLVDIYGVGVLITGKSGVGKSETALELVKRGHRLVADDCVEIRQEDQDTLVGNAPELIEHLLEIRGLGIINVMTLFGAGAVRSNKRITIVMNLELWEQGKQYDRLGLEEETMKIIDTEITKLTIPVRPGRNLAVIIEVAAMNFRLKRMGLNAAEQFTNKLADVIEDGEQEE [Q53M] |

Variants of: B4
Conditions: with rsbt_bacsu rsbT

| effect of a mutation on the interaction | Variant |
| --- | --- |
| increasing interaction strength | MALRKNRGSRMQRNVIAMTEPKSLNSEQYRTIRTNIEFASVDRQMKSVMITSACPGEGKSTTAANLAVVFAQQGKKVLLIAADLRKPTVHTAFFLENTVGLTSVLLKKSSMEQAVQASNEKHLDVLTSGPIPPNPAELLSSKWMKELAYEACAAYDMVIFDTPPILAVADAQILGNVADGSVLVISSGKTEKEQAAKAKEALATCKSKLLGAIMNGKKLSKHSEYGYYGTKDNFMQK [D81A] |

— IntAct's records for PubMed 25278935
